Test results reported in article PMC3267895.
Like-named read-outs stand apart in the source and are kept apart here.

Legend:
NPH-II [1] = biological target: T1, NPH-II (vaccinia virus, UniProt P12927 1-676); test: smFRET
NPH-II [2] = biological target: T1, NPH-II; test: smFRET; remark: listed apart in the source
NPH-II [3] = biological target: T1, NPH-II; test: smFRET; remark: listed apart in the source
NPH-II [4] = biological target: T1, NPH-II; test: sucrose gradient centrifugation
NPH-II [5] = biological target: T1, NPH-II; test: sucrose gradient centrifugation; remark: listed apart in the source
NPH-II [6] = biological target: T1, NPH-II; test: sucrose gradient centrifugation; remark: listed apart in the source

B1: smFRET bipartite RNA with two extra 3' U on complementary strand (dsRNA)
RNA 1: AGCACCGUAAAGACGCAGCCAGCAUCAAUGACAUCAGCAUCAA
RNA 2: GCUGCGUCUUUACGGUGCUUU
modifications: 3' biotin on strand 2
- Kd (NPH-II [1]): < 0.01 nM
- Kd (NPH-II [2]): 0.91 ± 0.12 nM
- Kd (NPH-II [3]): 20.8 ± 7.5 nM

B2: bipartite RNA, 19 bp duplex with 24 nt 3' overhang (dsRNA)
RNA 1: AGCACCGUAAAGACGCAGCCAGCAUCAAUGACAUCAGCAUCAA
RNA 2: GCUGCGUCUUUACGGUGCU
- binding result (NPH-II [4]): binds

Binder: CAGCAUCAAUGACAUCAGCAUCAA (ssRNA) [single-stranded RNA 24 nt (overhang)]
- binding result (NPH-II [5]): binds

B3: blunt-end duplex RNA 19 bp (dsRNA)
RNA 1: AGCACCGUAAAGACGCAGC
RNA 2: GCUGCGUCUUUACGGUGCU
- binding result (NPH-II [6]): binds
